Assay results published in patent publication US20240301062A1 (BEIGENE SWITZERLAND, published 2024).
Read-outs that look alike come from different tables or passages of the source.

T1: Cyno CDεγ (recombinant cynomolgus CD3εγ) (cyno, UniProt Q95LI5 22-117; Q95LI7 23-113)
T1 construct: Printed as CDεγ; read as CD3εγ
T1 sequence (looked up) 1: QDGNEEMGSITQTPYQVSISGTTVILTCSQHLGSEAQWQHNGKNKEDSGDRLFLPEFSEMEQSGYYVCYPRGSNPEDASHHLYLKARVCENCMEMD
T1 sequence (looked up) 2: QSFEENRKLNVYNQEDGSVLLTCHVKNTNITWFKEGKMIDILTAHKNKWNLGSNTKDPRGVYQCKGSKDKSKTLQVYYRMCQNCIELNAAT

T2: human claudin 6 (CLDN6) (human, UniProt P56747 1-220)
T2 construct: also called human CLDN6; hCLDN6
T2 sequence: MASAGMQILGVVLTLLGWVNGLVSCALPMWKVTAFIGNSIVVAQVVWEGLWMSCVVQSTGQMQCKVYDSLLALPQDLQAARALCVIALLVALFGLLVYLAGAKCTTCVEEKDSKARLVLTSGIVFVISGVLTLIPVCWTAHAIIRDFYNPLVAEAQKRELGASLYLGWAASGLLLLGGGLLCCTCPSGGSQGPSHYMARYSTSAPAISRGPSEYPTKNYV

T3: human claudin 9 (CLDN9) (human, UniProt O95484 1-217)
T3 construct: also called human CLDN9
T3 sequence: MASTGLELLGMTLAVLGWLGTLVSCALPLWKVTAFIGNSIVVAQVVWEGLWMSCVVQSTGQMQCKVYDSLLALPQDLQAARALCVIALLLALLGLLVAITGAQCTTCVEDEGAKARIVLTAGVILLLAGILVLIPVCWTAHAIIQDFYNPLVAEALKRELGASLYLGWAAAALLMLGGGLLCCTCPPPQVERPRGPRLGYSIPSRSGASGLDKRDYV

T4: mouse CLDN6 (mouse, UniProt Q9Z262 1-219)
T4 construct: whole, on cells
T4 sequence (looked up): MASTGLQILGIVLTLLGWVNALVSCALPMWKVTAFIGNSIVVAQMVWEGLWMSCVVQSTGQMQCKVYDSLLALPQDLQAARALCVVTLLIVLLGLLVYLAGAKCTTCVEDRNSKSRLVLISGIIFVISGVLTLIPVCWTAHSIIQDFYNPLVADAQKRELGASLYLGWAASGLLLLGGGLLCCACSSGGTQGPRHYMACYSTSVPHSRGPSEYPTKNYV


How the values were obtained:
[1] = target: CD3ε (SPR analyte) (UniProt P07766 23-126, limits assumed); experiment: SPR, scFv-Fc
CD3ε (SPR analyte), sequence (P07766 23-126 limits assumed): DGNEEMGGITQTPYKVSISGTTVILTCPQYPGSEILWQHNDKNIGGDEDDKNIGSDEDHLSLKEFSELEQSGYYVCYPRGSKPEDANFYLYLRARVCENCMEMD

[2] = target: T5, human native CD3 on live cells (HuT78, Jurkat) (human, UniProt P07766 23-207; P09693 23-182; P04234 22-171); experiment: FACS, HuT78 cells, Test 1
T5 construct: whole, on cells; also called human CD3
T5 sequence (P07766 23-207, chain 1 of 3): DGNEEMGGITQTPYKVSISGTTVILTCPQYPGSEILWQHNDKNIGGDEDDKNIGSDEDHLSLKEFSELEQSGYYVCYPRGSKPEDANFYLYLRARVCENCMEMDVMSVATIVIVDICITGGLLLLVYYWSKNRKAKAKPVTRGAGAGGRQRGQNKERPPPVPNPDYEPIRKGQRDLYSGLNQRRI
T5 sequence (P09693 23-182, chain 2 of 3): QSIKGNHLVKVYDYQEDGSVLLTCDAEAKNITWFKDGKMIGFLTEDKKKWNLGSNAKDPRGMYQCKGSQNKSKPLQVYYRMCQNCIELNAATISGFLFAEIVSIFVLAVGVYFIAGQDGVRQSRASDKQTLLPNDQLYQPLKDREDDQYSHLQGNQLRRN
T5 sequence (P04234 22-171, chain 3 of 3): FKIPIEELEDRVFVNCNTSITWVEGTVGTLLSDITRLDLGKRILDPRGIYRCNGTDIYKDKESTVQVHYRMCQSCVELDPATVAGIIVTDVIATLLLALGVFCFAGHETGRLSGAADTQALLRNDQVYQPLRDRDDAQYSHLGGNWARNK
Protocol: (§1) For affinity determination, antibodies were captured by anti-human Fc surface, and used in the affinity-assay based on surface plasmon resonance (SPR) technology. The binding activity of humanized sp34 to bind native CD3 on live cells was evaluated using HuT78 cells in a FACS based assay. Live HuT78 cells were seeded in 96-well plate, and were incubated with a series of dilutions of chimeric or humanized sp34. Mouse anti-Human IgG was used as second antibody to detect antibody binding to the cell surface. EC50 values for dose-dependent binding to human native CD3 were determined by fitting the dose-response data to the four-parameter logistic model with GraphPad Prism.

[3] = target: T5, human native CD3 on live cells (HuT78, …); experiment: FACS, HuT78 cells, Test 2
Protocol: as §1

[4] = target: T5, human native CD3 on live cells (HuT78, …); experiment: flow cytometry on live HuT78 cells, mouse anti-human IgG secondary, MFI
Protocol: as §1

[5] = target: T5, human native CD3 on live cells (HuT78, …); experiment: as above; remark: listed apart in the source
Protocol: as §1

[6] = target: T5, human native CD3 on live cells (HuT78, …); experiment: FACS, HuT78 cells, Test 3
Protocol: as §1

[7] = target: T5, human native CD3 on live cells (HuT78, …); experiment: flow cytometry on live HuT78 cells, mouse anti-human IgG secondary, MFI; remark: listed apart in the source
Protocol: as §1

[8] = target: T6, Human CDεγ (recombinant human CD3εγ) (human, UniProt P07766 23-126; P09693 23-116); experiment: SPR, recombinant protein
T6 construct: Printed as CDεγ; read as CD3εγ
T6 sequence (P07766 23-126, chain 1 of 2): as the sequence (P07766 23-126 limits assumed) above
T6 sequence (P09693 23-116, chain 2 of 2): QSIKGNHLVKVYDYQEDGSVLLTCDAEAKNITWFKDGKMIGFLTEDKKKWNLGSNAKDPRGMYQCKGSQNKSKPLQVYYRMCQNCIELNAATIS
Protocol: (§2) The binding kinetics of CLDN6×CD3 BsAb BG143P were measured using SPR. SPR was used to measure the on-rate constant (kₐ) and off-rate constant (kd) of the antibodies to recombinant proteins of CDεγ and then determined the affinity constant (KD).

[9] = target: T1, Cyno CDεγ (recombinant cynomolgus CD3εγ); experiment: SPR, recombinant protein
Protocol: as §2

[10] = target: T5, human native CD3 on live cells (HuT78, …); experiment: FACS, CD3-expressing Jurkat cells
[11] = target: T2, human claudin 6 (CLDN6); experiment: FACS, CLDN6-expressing PA-1 cells
[12] = target: T3, human claudin 9 (CLDN9); experiment: flow cytometry on NCI-H1299 cells stably expressing human CLDN9, anti-human Fc gamma secondary, MFI (AF647) [right panel]
Protocol: Expressing vectors of human CLDN6 and CLDN9 were established by inserting synthesized cDNA coding corresponding sequences into mammalian expression vector. NCI-H1299 stable cells expressing human CLDN6 and CLDN9 were generated by transfection of corresponding plasmids. Cells were suspended at a concentration of 1×10⁶ cells in FACS buffer (2% FBS, 1×PBS), and the cell suspension was dispensed into a U-bottom 96-well plate ([…]). Antibody was added thereto at final top concentration of 100 nM and 2× dilute for 11 dilutions, then mixed with cells and incubated at 4° C. for 1 hour. After centrifugation, the reaction solution was removed, and the cells were washed twice with 200 μL/well FACS buffer. Then, APC-anti human Fcγ was diluted 500-fold with FACS buffer and added as secondary antibodies to the cells. The cells were incubated at 4° C. for 30 mins, then washed twice as above, and suspended in 100 μL FACS buffer. The cell suspension was subjected to flow cytometry.

[13] = target: T3, human claudin 9 (CLDN9); experiment: flow cytometry, CHOK1/human CLDN9-GFP cells
[14] = target: T7, cyno CLDN6 (cyno); experiment: flow cytometry, CHOK1/Cyno CLDN6-GFP cells
T7 construct: whole, on cells; also called cynomolgus CLDN6

[15] = target: T2, human claudin 6 (CLDN6); experiment: flow cytometry, CHOK1/human CLDN6-GFP cells
[16] = target: T4, mouse CLDN6; experiment: flow cytometry, CHOK1/mouse CLDN6-GFP cells
[17] = target: T2, human claudin 6 (CLDN6); experiment: flow cytometry, PA-1 cells (endogenous CLDN6)

| Binder | Kd [1] [nM] | koff [1] [s⁻¹] | kon [1] [M⁻¹ s⁻¹] | EC50 [3] [nM] | EC50 (read off the curve) [4] [µg/mL] | EC50 [6] [nM] | EC50 (read off the curve) [7] [µg/mL] | further results |
| --- | --- | --- | --- | --- | --- | --- | --- | --- |
| humanized scFv BG562P (scFv-Fc) (Fc fusion, BG561P with L4V in VL; not shown: human IgG1 Fc region, scFv fused to its N-terminus) scFv: EVQLVESGGGLVQPGGSLRLSCAASGFTFNTYAMNWVRQAPGKGLEWVARIRSKYNNYATYYADSVKDRFTISRDDAKNSLYLQMNSLRAEDTAVYYCVRHGNFGNSYVSWFAYWGQGTLVTVSSGGGGSGGGGSGGGGSEIVVTQSPATLSVSPGERATLSCRSSTGAVTTSNYANWVQQKPGQAPRGLIGGTNKRAPGIPARFSGSLSGDEATLTISSLQSEDFAVYYCALWYSNLWVFGGGTKVEIK | 3.16 | 0.000367 | 116000 | 2.85 | ~0.3 | – | – | EC50 [2]: 2.85 nM; EC50 (read off the curve) [5]: ~0.1 µg/mL |
| humanized scFv BG563P (scFv-Fc) (Fc fusion, BG561P with L4V in VL and A49G, D65G in VH; not shown: human IgG1 Fc region, scFv fused to its N-terminus) scFv: EVQLVESGGGLVQPGGSLRLSCAASGFTFNTYAMNWVRQAPGKGLEWVGRIRSKYNNYATYYADSVKGRFTISRDDAKNSLYLQMNSLRAEDTAVYYCVRHGNFGNSYVSWFAYWGQGTLVTVSSGGGGSGGGGSGGGGSEIVVTQSPATLSVSPGERATLSCRSSTGAVTTSNYANWVQQKPGQAPRGLIGGTNKRAPGIPARFSGSLSGDEATLTISSLQSEDFAVYYCALWYSNLWVFGGGTKVEIK | 1.57 | 0.000772 | 493000 | 0.94 | ~0.1 | 0.94 | ~0.1 | – |
| humanized scFv BG564P (scFv-Fc) (Fc fusion, BG563P with N30S and N100S in VH; not shown: human IgG1 Fc region, scFv fused to its N-terminus) scFv: EVQLVESGGGLVQPGGSLRLSCAASGFTFSTYAMNWVRQAPGKGLEWVGRIRSKYNNYATYYADSVKGRFTISRDDAKNSLYLQMNSLRAEDTAVYYCVRHGNFGSSYVSWFAYWGQGTLVTVSSGGGGSGGGGSGGGGSEIVVTQSPATLSVSPGERATLSCRSSTGAVTTSNYANWVQQKPGQAPRGLIGGTNKRAPGIPARFSGSLSGDEATLTISSLQSEDFAVYYCALWYSNLWVFGGGTKVEIK | 1.39 | 0.000576 | 414000 | – | – | 1.23 | ~0.1 | – |
| CLDN6xCD3 BsAb BG143P (bispecific antibody, human IgG1, kappa, module ratio 1:1, Fc null huIgG1, knob into hole; also called CLDN6×CD3 BsAb; CLDN6×CD3 antibody) EVQLVESGGGLVQPGGSLRLSCAASGFTFSTYAMNWVRQAPGKGLEWVGRIRSKYNNYATYYADSVKGRFTISRDDAKNSLYLQMNSLRAEDTAVYYCVRHGNFGSSYVSWFAYWGQGTLVTVSSGGGGSGGGGSGGGGSEIVVTQSPATLSVSPGERATLSCRSSTGAVTTSNYANWVQQKPGQAPRGLIGGTNKRAPGIPARFSGSLSGDEATLTISSLQSEDFAVYYCALWYSNLWVFGGGTKVEIKEPKSSDKTHTCPPCPAPPAAGPSVFLFPPKPKDTLMISRTPEVTCVVVDVSHEDPEVKFNWYVDGVEVHNAKTKPREEQYNSTYRVVSVLTVLHQDWLNGKEYKCKVSNKALAAPIEKTISKAKGQPREPQVYTLPPSRDELTKNQVSLWCLVKGFYPSDIAVEWESNGQPENNYKTTPPVLDSDGSFFLYSKLTVDKSRWQQGNVFSCSVMHEALHNHYTQKSLSLSPGK heavy: EVQLQESGGGLVQPGGSLRLSCAASGYSFSDYHINWVRQAPGKGLEWVGYIYPGSGHTKYNEKFKGRFTISRDTSSNTAYLQMNSLRAEDTAVYYCARSGIYHYVSSYYFDHWGQGTLVTVSSASTKGPSVFPLAPSSKSTSGGTAALGCLVKDYFPEPVTVSWNSGALTSGVHTFPAVLQSSGLYSLSSVVTVPSSSLGTQTYICNVNHKPSNTKVDKKVEPKSCDKTHTCPPCPAPPAAGPSVFLFPPKPKDTLMISRTPEVTCVVVDVSHEDPEVKFNWYVDGVEVHNAKTKPREEQYNSTYRVVSVLTVLHQDWLNGKEYKCKVSNKALAAPIEKTISKAKGQPREPQVYTLPPSRDELTKNQVSLSCAVKGFYPSDIAVEWESNGQPENNYKTTPPVLDSDGSFFLVSKLTVDKSRWQQGNVFSCSVMHEALHNHYTQKSLSLSPGK light: DIQMTQSPSSLSASVGDRVTITCKASQDAGSAVAWYQQKPGKAPKLLIYWASTRHTGVPSRFSGSGSGTDFTLTISSLQPEDFATYYCQQYSSYTFGGGTKLEIKRTVAAPSVFIFPPSDEQLKSGTASVVCLLNNFYPREAKVQWKVDNALQSGNSQESVTEQDSKDSTYSLSSTLTLSKADYEKHKVYACEVTHQGLSSPVTKSFNRGEC | – | – | – | – | – | – | – | Kd [8]: 8.31 nM; koff [8]: 0.0181 s⁻¹; kon [8]: 2.17e+06 M⁻¹ s⁻¹; Kd [9]: 4.55 nM; koff [9]: 0.00599 s⁻¹; kon [9]: 1.32e+06 M⁻¹ s⁻¹; EC50 [10]: 6.98 nM; EC50 [11]: 81.3 nM; binding result [12]: no binding (tested: 100 nM) |
| BG87P (mouse anti-CLDN6 antibody, hybridoma clone) (antibody, V domains shown, Mouse antibody purified from hybridoma supernatant on protein A; also called clone BG87P) VH: QIQLQQSGPELVKPGASVKISCKASGYSFTDYHINWVKQRPGQGLEWIGWIYPGSGYTKYNEKFKVKATLTVDTSSSTAYMHLTSLTSEDSAVYFCARSGIYHYVSSYYFDHWGQGTTLTVSS VL: DIVMTQSHTFMSTSVGDRVSITCKASQDVGTAVAWYQQKPGQSPKLLIYWASTRHTGVPDRFTGSGSGTDFTLTISNVQSEDLADYFCQQYSSYTFGGGTKLEIK | – | – | – | – | – | – | – | binding result [13]: no binding; EC50 [14]: 6.08 nM; EC50 [15]: 3.41 nM; EC50 [16]: 94.7 nM; EC50 [17]: 3.38 nM |
